Measurements reported in article PMC11417369, “DNA sequence and chromatin differentiate sequence-specific transcription factor binding in the human malaria parasite Plasmodium falciparum”.

T1: AP2-G D1 (Plasmodium falciparum, UniProt Q8I5I9 2123-2245)
T1 sequence: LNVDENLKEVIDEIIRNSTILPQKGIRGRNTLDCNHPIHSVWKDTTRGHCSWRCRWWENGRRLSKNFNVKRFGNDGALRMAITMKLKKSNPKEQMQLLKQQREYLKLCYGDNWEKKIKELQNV

B1: XGTACX_site3785 (dsDNA)
DNA 1: ATATACATATGTGTGTGTACTTATATCACATTTTTG
DNA 2: CAAAAATGTGATATAAGTACACACACATATGTATAT
B2: XGTACX_site2113 (dsDNA)
DNA 1: AAGATAAAATAATAAAGTACACATATAAATTGAAAA
DNA 2: TTTTCAATTTATATGTGTACTTTATTATTTTATCTT
B3: XGTACX_site3663 (dsDNA)
DNA 1: TTTTTTTCTTAAAGATGTACTTTTTTAAAATAATCT
DNA 2: AGATTATTTTAAAAAAGTACATCTTTAAGAAAAAAA
B4: XGTACX_site1387 (dsDNA)
DNA 1: AAAAAAAATTATATATGTACTTATTAATCCTTTTAT
DNA 2: ATAAAAGGATTAATAAGTACATATATAATTTTTTTT
B5: XGTACX_site2864 (dsDNA)
DNA 1: CCTATATAATTATAATGTACTTGTAAAAAATATAAC
DNA 2: GTTATATTTTTTACAAGTACATTATAATTATATAGG
B6: XGTACX_site366 (dsDNA)
DNA 1: TAATATTTCATTAGGTGTACACTACATAGTAGTAGA
DNA 2: TCTACTACTATGTAGTGTACACCTAATGAAATATTA
B7: XGTACX_site4379 (dsDNA)
DNA 1: AATTAAATAAATGTATGTACATAATAAATATGTATT
DNA 2: AATACATATTTATTATGTACATACATTTATTTAATT
B8: XGTACX_site1573 (dsDNA)
DNA 1: TCCATTGTCACCTTTTGTACTTAAATTTTTTCCTCC
DNA 2: GGAGGAAAAAATTTAAGTACAAAAGGTGACAATGGA
B9: XGTACX_site8080 (dsDNA)
DNA 1: AAGCTTAAAAATGGGGGTACGTCATAGGGATTCAAC
DNA 2: GTTGAATCCCTATGACGTACCCCCATTTTTAAGCTT
B10: XGTACX_site977 (dsDNA)
DNA 1: TTCAAATTGTTTATATGTACTTATAAAAATTGTCTG
DNA 2: CAGACAATTTTTATAAGTACATATAAACAATTTGAA
B11: XGTACX_site8319 (dsDNA)
DNA 1: AAAAAAATATTAATGTGTACATAATAATAACATATA
DNA 2: TATATGTTATTATTATGTACACATTAATATTTTTTT
B12: XGTACX_site8481 (dsDNA)
DNA 1: TCAATTTTTTAATGTTGTACTTTGTAAAAAAAAATA
DNA 2: TATTTTTTTTTACAAAGTACAACATTAAAAAATTGA
B13: XGTACX_site7939 (dsDNA)
DNA 1: GGATTTTTCGAATCATGTACATATTTAATTAAAAAA
DNA 2: TTTTTTAATTAAATATGTACATGATTCGAAAAATCC
B14: XGTACX_site8545 (dsDNA)
DNA 1: TTACACATGTTTAACTGTACACATAATAGCAATATT
DNA 2: AATATTGCTATTATGTGTACAGTTAAACATGTGTAA
B15: XGTACX_site3287 (dsDNA)
DNA 1: TTTTACAATATTTTGTGTACTTATATTATGAGCTTA
DNA 2: TAAGCTCATAATATAAGTACACAAAATATTGTAAAA
B16: XGTACX_site5109 (dsDNA)
DNA 1: TTTTTTTTTTTTTTTGGTACACATTTTGGTTAATGG
DNA 2: CCATTAACCAAAATGTGTACCAAAAAAAAAAAAAAA
B17: XGTACX_site5322 (dsDNA)
DNA 1: TATATATATATATGTAGTACTTTACAAAATAATTCG
DNA 2: CGAATTATTTTGTAAAGTACTACATATATATATATA
B18: XGTACX_site17 (dsDNA)
DNA 1: TTTTACAAATATTACTGTACACATTTTCATATAATT
DNA 2: AATTATATGAAAATGTGTACAGTAATATTTGTAAAA
B19: XGTACX_site4551 (dsDNA)
DNA 1: ATATATATATATATTTGTACTTACATTTTTATTTAT
DNA 2: ATAAATAAAAATGTAAGTACAAATATATATATATAT
B20: XGTACX_site1392 (dsDNA)
DNA 1: ATATGTAAAATATGGGGTACGAAGGTAGGTAGGTAA
DNA 2: TTACCTACCTACCTTCGTACCCCATATTTTACATAT
B21: XGTACX_site6785 (dsDNA)
DNA 1: ATATATGGAAAGAGTAGTACTATTATAGGGGTGTTA
DNA 2: TAACACCCCTATAATAGTACTACTCTTTCCATATAT
B22: XGTACX_site7911 (dsDNA)
DNA 1: TAGCATGATTTGCCTTGTACACAACCGTTTTAATAA
DNA 2: TTATTAAAACGGTTGTGTACAAGGCAAATCATGCTA
B23: XGTACX_site8893 (dsDNA)
DNA 1: ATATATATATATATATGTACATATATATTGTTGATC
DNA 2: GATCAACAATATATATGTACATATATATATATATAT
B24: XGTACX_site5884 (dsDNA)
DNA 1: TCAAGTATTAAAATGGGTACATAAATATGTGTATAT
DNA 2: ATATACACATATTTATGTACCCATTTTAATACTTGA
B25: XGTACX_site4032 (dsDNA)
DNA 1: TTCATTTTTTATTATAGTACACATAATATTTGCAGA
DNA 2: TCTGCAAATATTATGTGTACTATAATAAAAAATGAA
B26: XGTACX_site8514 (dsDNA)
DNA 1: AGTATTATATATATATGTACATAATATACATATATA
DNA 2: TATATATGTATATTATGTACATATATATATAATACT
B27: XGTACX_site8830 (dsDNA)
DNA 1: AAATGCTAAAAATAGAGTACAGATAACGAAAAGTGT
DNA 2: ACACTTTTCGTTATCTGTACTCTATTTTTAGCATTT
B28: XGTACX_site1814 (dsDNA)
DNA 1: TTAAGAATATTTTCATGTACTCATTTTTTTTGTTAT
DNA 2: ATAACAAAAAAAATGAGTACATGAAAATATTCTTAA
B29: XGTACX_site7594 (dsDNA)
DNA 1: AGACGTAATAATTGTTGTACATAAAAAAATAAGAAA
DNA 2: TTTCTTATTTTTTTATGTACAACAATTATTACGTCT
B30: XGTACX_site4165 (dsDNA)
DNA 1: TTGTTTTTTTTTGGCTGTACGTTCATAAATTTTTTT
DNA 2: AAAAAAATTTATGAACGTACAGCCAAAAAAAAACAA
B31: XGTACX_site7234 (dsDNA)
DNA 1: ATTTCCTTTTTCTGTTGTACTCATAAAATAATATGT
DNA 2: ACATATTATTTTATGAGTACAACAGAAAAAGGAAAT
B32: XGTACX_site1288 (dsDNA)
DNA 1: TAAAGAGTCATGTGGTGTACCTGCTTCACCACATAT
DNA 2: ATATGTGGTGAAGCAGGTACACCACATGACTCTTTA
B33: XGTACX_site8237 (dsDNA)
DNA 1: TATAAAAATTAATATTGTACGTTTTATGAAAATAAA
DNA 2: TTTATTTTCATAAAACGTACAATATTAATTTTTATA
B34: XGTACX_site1944 (dsDNA)
DNA 1: TTCAAAAATATATAATGTACACAAATATAAAAGAAT
DNA 2: ATTCTTTTATATTTGTGTACATTATATATTTTTGAA
B35: XGTACX_site2117 (dsDNA)
DNA 1: TATAATATATGTATATGTACTTATGTTGAGAAACAT
DNA 2: ATGTTTCTCAACATAAGTACATATACATATATTATA
B36: XGTACX_site3520 (dsDNA)
DNA 1: ATATATATATATATATGTACTTATTTATCGTATTAT
DNA 2: ATAATACGATAAATAAGTACATATATATATATATAT
B37: XGTACX_site7381 (dsDNA)
DNA 1: TATCTTTATATATAGTGTACACATTAAACAAATCTC
DNA 2: GAGATTTGTTTAATGTGTACACTATATATAAAGATA
B38: XGTACX_site2641 (dsDNA)
DNA 1: TATATATATTTAAGGTGTACATAAATAACAAAATAT
DNA 2: ATATTTTGTTATTTATGTACACCTTAAATATATATA
B39: XGTACX_site6588 (dsDNA)
DNA 1: AAAAATTGAATGATGTGTACTTAAAAGAATATAGAA
DNA 2: TTCTATATTCTTTTAAGTACACATCATTCAATTTTT
B40: XGTACX_site3365 (dsDNA)
DNA 1: TATATGGGATATATGTGTACATATAAAATATGTATC
DNA 2: GATACATATTTTATATGTACACATATATCCCATATA
B41: XGTACX_site1598 (dsDNA)
DNA 1: CTAATAAAAAAAAAAAGTACATATGACAATATAAAG
DNA 2: CTTTATATTGTCATATGTACTTTTTTTTTTTATTAG
B42: XGTACX_site8448 (dsDNA)
DNA 1: AGGTTTCATTTAGCATGTACATATTATAAAAATTGT
DNA 2: ACAATTTTTATAATATGTACATGCTAAATGAAACCT
B43: XGTACX_site894 (dsDNA)
DNA 1: AATAATGTTATAAATTGTACGTGTATTATTCATTAC
DNA 2: GTAATGAATAATACACGTACAATTTATAACATTATT

What follows are binders tested against T1, AP2-G D1 (assay: gcPBM; about 25 ug protein; PBS, 1% milk, 0.2 mg/ml BSA, salmon testes DNA, 0.03% Triton X-100). Details: tags: N-terminal GST (pGEX-4T-1), kept; label: surface-attached array probe.
In the case of B1, the binding signal is reported as 12 ln median PBM intensity, better of two orientations. B2 was tested, and the binding signal was 11.8 ln median PBM intensity, better of two orientations. B3 was tested, and the binding signal was 12 ln median PBM intensity, better of two orientations. For B4, the binding signal was 12 ln median PBM intensity, better of two orientations. B5 was tested, and the binding signal was 11.8 ln median PBM intensity, better of two orientations. For B6, the binding signal was 12.2 ln median PBM intensity, better of two orientations. In the case of B7, the binding signal is reported as 11.7 ln median PBM intensity, better of two orientations. For B8, the binding signal was 11.9 ln median PBM intensity, better of two orientations. In the case of B9, the binding signal is reported as 11.7 ln median PBM intensity, better of two orientations. With B10 the binding signal was 11.8 ln median PBM intensity, better of two orientations. For B11, the binding signal was 11.9 ln median PBM intensity, better of two orientations. In the case of B12, the binding signal is reported as 11.7 ln median PBM intensity, better of two orientations. For B13, the binding signal was 11.8 ln median PBM intensity, better of two orientations. In the case of B14, the binding signal is reported as 12.2 ln median PBM intensity, better of two orientations. In the case of B15, the binding signal is reported as 12.2 ln median PBM intensity, better of two orientations. For B16, the binding signal was 12 ln median PBM intensity, better of two orientations. With B17 the binding signal was 12.1 ln median PBM intensity, better of two orientations. For B18, the binding signal was 12.2 ln median PBM intensity, better of two orientations. For B19, the binding signal was 11.6 ln median PBM intensity, better of two orientations. For B20, the binding signal was 11.7 ln median PBM intensity, better of two orientations. B21 was tested, and the binding signal was 11.7 ln median PBM intensity, better of two orientations. For B22, the binding signal was 11.7 ln median PBM intensity, better of two orientations. B23 was tested, and the binding signal was 11.8 ln median PBM intensity, better of two orientations. In the case of B24, the binding signal is reported as 12.1 ln median PBM intensity, better of two orientations. With B25 the binding signal was 12.3 ln median PBM intensity, better of two orientations. In the case of B26, the binding signal is reported as 11.6 ln median PBM intensity, better of two orientations. For B27, the binding signal was 12.1 ln median PBM intensity, better of two orientations. With B28 the binding signal was 12 ln median PBM intensity, better of two orientations. For B29, the binding signal was 12.1 ln median PBM intensity, better of two orientations. B30 was tested, and the binding signal was 11.9 ln median PBM intensity, better of two orientations. B31 was tested, and the binding signal was 12.2 ln median PBM intensity, better of two orientations. For B32, the binding signal was 11.9 ln median PBM intensity, better of two orientations. B33 was tested, and the binding signal was 11.9 ln median PBM intensity, better of two orientations. In the case of B34, the binding signal is reported as 12 ln median PBM intensity, better of two orientations. B35 was tested, and the binding signal was 11.7 ln median PBM intensity, better of two orientations. For B36, the binding signal was 11.9 ln median PBM intensity, better of two orientations. In the case of B37, the binding signal is reported as 12.4 ln median PBM intensity, better of two orientations. B38 was tested, and the binding signal was 12.3 ln median PBM intensity, better of two orientations. B39 was tested, and the binding signal was 11.8 ln median PBM intensity, better of two orientations. For B40, the binding signal was 11.8 ln median PBM intensity, better of two orientations. With B41 the binding signal was 12.1 ln median PBM intensity, better of two orientations. For B42, the binding signal was 11.6 ln median PBM intensity, better of two orientations. For B43, the binding signal was 11.8 ln median PBM intensity, better of two orientations.
